In IntAct's records for PubMed 12058072:

B1: Serine/threonine-protein kinase GIN4 (Saccharomyces cerevisiae), Q12263 (parent)
chain: MAINGNSIPAIKDNTIGPWKLGETLGLGSTGKVQLARNGSTGQEAAVKVISKAVFNTGNVSGTSIVGSTTPDALPYGIEREIIIMKLLNHPNVLRLYDVWETNTDLYLVLEYAEKGELFNLLVERGPLPEHEAIRFFRQIIIGVSYCHALGIVHRDLKPENLLLDHKYNIKIADFGMAALETEGKLLETSCGSPHYAAPEIVSGIPYQGFASDVWSCGVILFALLTGRLPFDEEDGNIRTLLLKVQKGEFEMPSDDEISREAQDLIRKILTVDPERRIKTRDILKHPLLQKYPSIRDSKSIRGLPREDTYLTPLSESNSSIDATILQNLVILWHGRDPEGIKEKLREPGANAEKTLYALLYRFKCDTQKELIKQQQVKKRQSISSVSVSPSKKVSTTPQRRRNRESLISVTSSRKKPISFNKFTASSASSSNLTTPGSSKRLSKNFSSKKKLSTIVNQSSPTPASRNKRASVINVEKNQKRASIFSTTKKNKRSSRSIKRMSLIPSMKRESVTTKLMSTYAKLAEDDDWEYIEKETKRTSSNFATLIDEIFEYEKYEQIRKEKEELERKVREAKAREELERRRRKQEEKERARKLLEKEDLKRKQEELKKQIEIDISDLEQELSKHKEEKLDGNIRSISAPMENEEKNINHLEVDIDNILRRRNFSLQTRPVSRLDPGIMFSSPTEEVSPVEPKRTENERLTTEKKILETIRRSKFLGSSFNIDKELKLSKMEYPSIIAPQRLSEERVVSDSNDGYESLILPKDGNGVSQLKDSTATTAPVSDGRLRKISEIRVPQFTRKSRHFSESNKRLSVLSMYSTKESFTNLVDILKNGNLDVNNQQSQRIPTPRSADDSEFLFETVNEEAEYTGNSSNDERLYDVGDSTIKDKSALKLNFADRFNGSNEAKQTDNLHLPILPPLNGDNELRKQNSQEGDQAHPKIKSMIPESGSSSHTEKEEENEEKEEKKPEQHKQEEDQEKREKVVDDMEPPLNKSVQKIREKNAGSQAKDHSKDHLKEHKQDKNTAIGNGSFFRKFSKSSDKTMELYAKISAKQLFNGLEKLLRGWTQYGLKNIKSHPNNLTLTGKLSSDNIFSLRSTLFEVNIYPRGKMSVVQFKKVSGSFKAVKKLVNEVENVLNKEGVLQK
partner: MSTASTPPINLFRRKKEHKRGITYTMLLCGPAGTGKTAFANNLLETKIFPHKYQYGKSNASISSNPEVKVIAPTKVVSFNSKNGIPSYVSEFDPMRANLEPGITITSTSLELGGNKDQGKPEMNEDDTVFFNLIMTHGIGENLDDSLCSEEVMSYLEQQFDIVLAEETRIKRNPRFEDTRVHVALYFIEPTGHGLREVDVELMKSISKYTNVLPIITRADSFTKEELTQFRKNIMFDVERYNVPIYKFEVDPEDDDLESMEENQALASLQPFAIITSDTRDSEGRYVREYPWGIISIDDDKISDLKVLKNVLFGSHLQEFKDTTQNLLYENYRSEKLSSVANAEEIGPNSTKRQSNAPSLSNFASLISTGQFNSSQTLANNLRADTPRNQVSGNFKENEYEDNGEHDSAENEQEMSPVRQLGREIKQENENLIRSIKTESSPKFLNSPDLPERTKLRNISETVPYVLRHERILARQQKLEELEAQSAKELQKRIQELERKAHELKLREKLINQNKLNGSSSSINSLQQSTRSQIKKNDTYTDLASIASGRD

Variants of: B1
Conditions: with shs1_yeast SHS1, Q07657

| Variant | effect of a mutation on the interaction |
| --- | --- |
| K48A | disrupting interaction |
